Bridge positions count the residues as written; N and C are the ends. Square brackets hold non-standard residues; d marks the D form. Hyp = O=C(O)[C@@H]1C[C@@H](O)CN1; NMeNle = CCCC[C@H](NC)C(=O)O; NMeA = CN[C@@H](C)C(=O)O; Dap = NC[C@H](N)C(=O)O
What was measured:
hPDL1(19-239)-TVMV-His [1] = biological target: T1, hPDL1(19-239)-TVMV-His (human, UniProt Q9NZQ7 19-239); experiment: HTRF competition of PD-1-Ig binding to PD-L1-His
T1 construct: Expressed in HEK293T cells; The text says amino acids 18-239, but the construct is named hPD-L1(19-239); The whole entry, including the TVMV site and His tag, is the protein used in the assay; also called PD-L1-TVMV-His; PD-L1-His
T1 sequence (Q9NZQ7 other isoform, or with tags, fused parts or gaps limits assumed): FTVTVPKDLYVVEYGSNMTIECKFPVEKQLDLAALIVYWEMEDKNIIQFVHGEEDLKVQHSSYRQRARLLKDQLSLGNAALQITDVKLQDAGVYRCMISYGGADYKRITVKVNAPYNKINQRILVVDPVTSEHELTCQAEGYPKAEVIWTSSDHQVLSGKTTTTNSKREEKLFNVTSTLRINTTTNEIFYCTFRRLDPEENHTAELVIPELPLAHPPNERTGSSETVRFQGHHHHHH
Protocol: Homogenous Time-Resolved Fluorescence (HTRF) Assays of Binding of Soluble PD-1 to Soluble PD-L1. Soluble PD-1 and soluble PD-L1 refers to proteins with carboxyl-end truncations that remove the transmembrane-spanning regions and are fused to heterologous sequences, specifically the Fc portion of the human immunoglobuling G sequence (Ig) or the hexahistidine epitope tag (His). All binding studies were performed in an HTRF assay buffer consisting of dPBS supplemented with 0.1% (w/v) bovine serum albumin and 0.05% (v/v) Tween-20. For the PD-1-Ig/PD-L1-His binding assay, inhibitors were pre-incubated with PD-L1-His (10 nM final) for 15 m in 4 μl of assay buffer, followed by addition of PD-1-Ig (20 nM final) in 1 μl of assay buffer and further incubation for 15 m. PD-L1 fusion proteins from either human, cynomologous macaques, mouse, or other species were used. HTRF detection was achieved using europium crypate-labeled anti-Ig monoclonal antibody (1 nM final) and allophycocyanin (APC) labeled anti-His monoclonal antibody (20 nM final). Antibodies were diluted in HTRF detection buffer and 5 μl was dispensed on top of binding reaction. The reaction was allowed to equilibrate for 30 minutes and signal (665 nm/620 nm ratio) was obtained using an EnVision fluorometer. Additional binding assays were established between PD-1-Ig/PD-L2-His (20 and 5 nM, respectively), CD80-His/PD-L1-Ig (100 and 10 nM, respectively) and CD80-His/CTLA4-Ig (10 and 5 nM, respectively). Binding/competition studies between biotinylated Compound No. 71 and human PD-L1-His were performed as follows. Macrocyclic peptide inhibitors were pre-incubated with PD-L1-His (10 nM final) for 60 minutes in 4 μl of assay buffer followed by addition of biotinylated Compound No. 71 (0.5 nM final) in 1 μl of assay buffer. Binding was allowed to equilibrate for 30 minutes followed by addition of europium crypated labeled Streptavidin (2.5 pM final) and APC-labeled anti-His (20 nM final) in 5 μl of HTRF buffer. […]

hPDL1(19-239)-TVMV-His [2] = biological target: T1, hPDL1(19-239)-TVMV-His; experiment: HTRF competition of PD-1-Ig binding to PD-L1-His; code B=0.004-0.0099 µM
Protocol: Homogenous Time-Resolved Fluorescence (HTRF) Assays of Binding of Soluble PD-1 to Soluble PD-L1. Soluble PD-1 and soluble PD-L1 refers to proteins with carboxyl-end truncations that remove the transmembrane-spanning regions and are fused to heterologous sequences, specifically the Fc portion of the human immunoglobuling G sequence (Ig) or the hexahistidine epitope tag (His). All binding studies were performed in an HTRF assay buffer consisting of dPBS supplemented with 0.1% (w/v) bovine serum albumin and 0.05% (v/v) Tween-20. For the PD-1-Ig/PD-L1-His binding assay, inhibitors were pre-incubated with PD-L1-His (10 nM final) for 15 m in 4 μl of assay buffer, followed by addition of PD-1-Ig (20 nM final) in 1 μl of assay buffer and further incubation for 15 m. PD-L1 fusion proteins from either human, cynomologous macaques, mouse, or other species were used. HTRF detection was achieved using europium crypate-labeled anti-Ig monoclonal antibody (1 nM final) and allophycocyanin (APC) labeled anti-His monoclonal antibody (20 nM final). Antibodies were diluted in HTRF detection buffer and 5 μl was dispensed on top of binding reaction. The reaction was allowed to equilibrate for 30 minutes and signal (665 nm/620 nm ratio) was obtained using an EnVision fluorometer. Additional binding assays were established between PD-1-Ig/PD-L2-His (20 and 5 nM, respectively), CD80-His/PD-L1-Ig (100 and 10 nM, respectively) and CD80-His/CTLA4-Ig (10 and 5 nM, respectively). Binding/competition studies between biotinylated Compound No. 71 and human PD-L1-His were performed as follows. Macrocyclic peptide inhibitors were pre-incubated with PD-L1-His (10 nM final) for 60 minutes in 4 μl of assay buffer followed by addition of biotinylated Compound No. 71 (0.5 nM final) in 1 μl of assay buffer. Binding was allowed to equilibrate for 30 minutes followed by addition of europium crypated labeled Streptavidin (2.5 pM final) and APC-labeled anti-His (20 nM final) in 5 μl of HTRF buffer. The reaction was allowed to equilibrate for 30 m and signal (665 nm/620 nm ratio) was obtained using an EnVision fluorometer.

| Binder | IC50 (hPDL1(19-239)-TVMV-His [1]) | IC50 (hPDL1(19-239)-TVMV-His [2]) |
| --- | --- | --- |
| {CH2CO}-Y[NMeA]NP[Dap]L[Hyp]WGW[NMeNle][NMeNle]LCG-{N‑(3-aminopropyl)morpholine amide} (thioether N-14, Macrocyclic peptide) [Example 13093] | 8.17 nM |  |
| {CH2CO}-Y[NMeA]NP[Dap]L[Hyp]WGW[NMeNle][NMeNle]LCG-phenylpiperazine (thioether N-14, Macrocyclic peptide) [Example 13117] |  | 4 to 9.9 nM |

Second part, the binder after the results:

| IC50 (hPDL1(19-239)-TVMV-His [1]) | IC50 (hPDL1(19-239)-TVMV-His [2]) | Binder |
| --- | --- | --- |
| 10 nM |  | {CH2CO}-Y[NMeA]NP[Dap]L[Hyp]WGW[NMeNle][NMeNle]LCG-{methyl 3‑aminopropionate} (thioether N-14, Macrocyclic peptide) [Example 13105] |
|  | 4 to 9.9 nM | {CH2CO}-Y[NMeA]NP[Dap]L[Hyp]WGW[NMeNle][NMeNle]LCG-{piperazin‑2‑one} (thioether N-14, Macrocyclic peptide) [Example 13114] |
| 50 nM |  | {CH2CO}-Y[NMeA]NP[Dap]L[Hyp]WGW[NMeNle][NMeNle]LCG-{4‑phenylpiperidine amide} (thioether N-14, Macrocyclic peptide) [Example 13088] |
